Laboratory results as given in US11319601B2, “Cell based assay” (Medical Diagnostic Laboratories, L.L.C., priority 2017, dated 2022).
“Also recorded” adds a separate entry of the source.

How the values were obtained:
Type in all cases: cell-based
L755S HER2 receptor = target: T1, L755S HER2 receptor (Homo sapiens, UniProt P04626, L755S); assay: HER2 reporter cells transfected with linear expression cassette of L755S HER2, all-in-one method
T1 construct: expressed in transfected cells; host or cells: HER2 reporter cells (clone #1)
Text: L755S corresponds to a missense mutation of HER2, which changes leucine (L) into serine (S) at amino acid position of 755. In order to functionally characterize this mutation, PCR-mediated overlapping extension was employed to construct linear expression cassette of HER2 carrying this mutation. The linear expression cassette of mutant HER2 DNA was first transfected into the reporter cells followed by treatment with NRG1 and its inhibitors using the “all-in-one” method. The luciferase reporter activity was measured 24 hours post-transfection.

HER2 and HER3 receptors = target: T2, HER2 and HER3 receptors (Homo sapiens, UniProt P04626+P21860); assay: ERK-Luc / JNK-Luc / 6×JNK-Luc reporters in HEK293 cells with HER3 and HER2, treated with NRG1
T2 construct: expressed in transfected cells; host or cells: HEK293
Method: In order to characterize the specificity of activation of ERK-Luc and JNK-Luc reporters upon treatment of HER3 ligand, ERK-Luc or JNK-Luc was co-transfected with expression plasmids of HER3 and wild-type or kinase-dead HER2 receptors into the HEK293 cells. After 24 hours, the transfected cells were treated with NRG1 (HER3 receptor ligand). The luciferase reporter activity of the transfected cells was measured by Nano-Glo® Luciferase Assay (Promega). In FIG. 13A, no difference in ERK-Luc reporter activity was found between the cells transfected with wild-type HER2 and kinase-dead HER2 after the treatment of NRG1. […] However, the activity of JNK-Luc reporter was reduced in the cells transfected with kinase-dead HER2 compared to the cells transfected with wild-type HER2 (FIG. 13B).
In order to examine the dose response of NRG1 in the activation of JNK-Luc reporters, JNK-Luc with expression plasmids of HER3 and wild-type HER2 receptors were co-transfected into the HEK293 cells. After 24 hours, the transfected cells were treated with a serial dilution of NRG1 (HER3 receptor ligand) for 6 hours. The luciferase reporter activity of the transfected cells was measured by Nano-Glo® Luciferase Assay (Promega).
In the previous example, the JNK-Luc reporter contained 3 copies of AP-1 binding site. We observed around 2.6 fold induction of reporter activity when the transfected cells were treated with 100 ng/ml of NRG1 (FIG. 14). In order to enhance the activation of reporter activity, the AP-1 binding site was increased from 3 copies to 6 copies. 6×JNK-Luc was co-transfected with expression plasmids of HER3 and wild-type HER2 receptors into the HEK293 cells. After 24 hours, the transfected cells were treated with 100 ng/ml of NRG1 (HER3 receptor ligand) for 6 hours. The luciferase reporter activity of the transfected cells was measured by Nano-Glo® Luciferase Assay (Promega). In FIG. 15, the 6×JNK-Luc reporter was activated by the treatment of NRG1 only when both HER2 and HER3 receptors were expressed (FIG. 15). Approximately a 4.2 fold induction of reporter activity was found.
For cell transfection experiments, HEK293 cells (ATCC) were plated at density of 4-8×10^4 cells per well (96-well plates) or 1-2×10^4 cells per well (384-well plates) in phenol red-free MEM containing 10% FBS and antibiotics. Either DNA plasmid or linear DNA was mixed with TransIT-293 transfection reagent (Mirus Bio LLC). Once cells were trypsinized, DNA transfection mix was added. The cells were then incubated for 24 or 48 hours.

wild-type HER2 receptor = target: T3, wild-type HER2 receptor (Homo sapiens, UniProt P04626); assay: Clone #28 stable 6×JNK-Luc reporter cells with HER3 plasmid and HER2 linear expression cassette; conditions: HER3 plasmid and HER2 linear expression DNA, 6 hours
T3 construct: expressed in transfected cells
Method: In the assay of the invention, expression of patient HER2 receptor is in the linear expression cassette format instead of plasmid DNA. Therefore, the clone #28 cells were transfected with HER3 expression plasmid and HER2 linear expression DNA. After 24 hours, the transfected cells were stimulated with a serial dilution of NRG1 for 6 hours. The luciferase reporter activity was measured. […] Therefore, this clone can be used to measure HER2 receptor activity by transfecting linear expression DNA of HER2.
In order to validate that the clone #28 cells was capable to measure the HER2 receptor activity, expression plasmids of HER3 were co-transfected with wild-type, constitutively active or kinase-dead HER2 receptors. […] The luciferase reporter activity of the transfected cells was measured by Nano-Glo® Luciferase Assay (Promega). […] However, no activation of reporter was detected when the cells were transfected with kinase-dead form of HER2 receptor.
In order to validate that the clone #28 reporter cells were capable of measuring the response of HER2 receptor to its inhibitors, these cells were first transfected with the HER2 linear expression DNA and HER3 expression plasmids followed by treatment of HER2 inhibitors for 6 hours in the presence of NRG1. The luciferase reporter activity of the treated cells was measured by Nano-Glo® Luciferase Assay (Promega). […]

Substance: NRG1: neuregulin-1, HER3 receptor ligand
- response of mutant HER2 reporter activity to ligand (L755S HER2 receptor): responds to treatment
- induction of 6×JNK-Luc reporter activity (HER2 and HER3 receptors; 100 ng/ml of NRG1, 6 hours, HEK293 with HER2 and HER3): ~4.2 fold
- induction of JNK-Luc reporter activity (3 copies of AP-1 binding site) (HER2 and HER3 receptors; 100 ng/ml of NRG1, HEK293 with HER2 and HER3): around 2.6 fold
- JNK-Luc reporter activation (HER2 and HER3 receptors; HER3 plus HER2, HEK293, serial dilution 6 hours): activated JNK-Luc reporter in a HER2's kinase dependent manner; also recorded: dose dependent activation
- reporter activation by ligand (wild-type HER2 receptor): dose dependent manner; also recorded: activated
